Patent US11649275B2, “Dual agonist fusion proteins” (Duke University, priority 2018, dated 2023)
Entries after “also recorded” stand apart in the source; their conditions may differ.

What was measured:
[1] = LCST phase behavior characterization (turbidity OD350 vs temperature); type: physicochemical
Experimental: Phase behavior characterization: The lower critical solution temperature (LCST) phase transition behavior of ELP fusion proteins was evaluated by monitoring the OD350 of solutions in PBS as a function of temperature on a Cary 300 UV-visible spectrophotometer equipped with a multicell thermoelectric temperature controller (Agilent Technologies, Santa Clara, Calif.). Heating and cooling were set to a rate of 1° C./min. The Tt was defined as the temperature at which the optical density reached 50% of its maximal value.

db/db mice [2] = assay: Single s.c. injection dose study of GLP1-ELP-FGF21 (ambient blood glucose, body weight); type: in vivo
Experimental: (§1) Animals: In vivo studies were conducted in accordance with the AAALAC-accredited Duke Institutional Animal Care and Use Committee. 5-week-old B6.BKS(D)-Lepr^db/J (“db/db”) male mice were purchased from Jackson Laboratory (Bar Harbor, Me.) and maintained on a 12 h/12 h light/dark cycle with ad libitum access to food (LabDiet 5053) and water. Animals were group-housed and allowed 1-week acclimation before stratification into control and treatment groups based on baseline ambient blood glucose levels and body weights.
(§2) ELP fusion treatments: ELP fusion proteins were administered at 150-200 μM concentration via injection into the subcutaneous (s.c.) space on the hind flank. Animals received either a single s.c. injection for short-term studies or weekly s.c. injections for chronic studies. The “1:1 mixture” treatment group received a single injection containing an equimolar mixture of GLP1-ELP and ELP-FGF21, with the indicated dose referring to the dose of each respective fusion in the mixture. Vehicle control refers to PBS.
Ambient blood glucose measurements: Blood glucose levels were measured from a tail vein puncture with an AlphaTRAK 2 Blood Glucose Meter (Zoetis, Parsippany-Troy Hills, N.J.) every 24 h, 1-2 h following onset of the light cycle. Data are presented as either raw values, or as a magnitude change from a mean baseline established from three independent measurements collected prior to treatment. Areas under the curve (AUCs) were calculated with GraphPad Prism 8 software using the trapezoidal rule and setting a Y=0 baseline. Treatment group AUCs were normalized to the vehicle-treated group where indicated.

[3] = Pharmacokinetic study of radiolabeled ELP fusion depots after s.c. injection; type: in vivo, mice; conditions: for Cmax / TMAX / AUC / T1/2, ABS (absorption half-life): db/db mice, 1000 nmol/kg; for Cmax / TMAX / AUC / T1/2, ABS (absorption half-life) / steady plasma drug levels: single s.c. injection; for Cmax / TMAX: radiolabeled construct; for AUC: extrapolated to 16 days post-administration; for T1/2, ABS (absorption half-life): from slope of terminal linear regression; for R-squared, first-order model / R-squared, zero-order model / Regression model, first-order elimination (Log(y)): fit to terminal portion of plasma concentration vs time data; for steady plasma drug levels: out to day 10 / for at least 10 days
Experimental: Pharmacokinetic studies: Tyrosine residues on GLP1-ELP, ELP-FGF21, or GLP1-ELP-FGF21 fusion proteins were reacted with Na^125I radionuclide (Perkin Elmer) using Pierce Pre-Coated Iodination Tubes (Thermo Fisher Scientific) and the indirect method for iodination. Radiolabeled protein was purified from unreacted radionuclide with Zeba Spin Desalting Columns (Thermo Fisher Scientific). Activities of radiolabeled constructs were measured with an Atomlab 400 Dose Calibrator (Biodex, Shirley, N.Y.) and correlated to protein concentration. Mice received a single s.c. injection of radiolabeled fusion, and 10 μL blood samples were collected at frequent time points from the tail vein and stored at room temperature until radioactivity quantification. Sample counts were measured at the end of the study on a Wallac Wizard 1480 Automatic Gamma Counter (Perkin Elmer). An activity vs. count standard curve was used to convert sample counts to activities, and subsequently to moles of drug.
Pharmacokinetic analysis: The maximum serum concentration (Cmax) was recorded as observed, as well as time to reach Cmax (tmax). […] Absorption half-life (t1/2, abs) was estimated from the slope of the linear regression curve. When a drug administered at an extravascular site yields a terminal half-life greater than that resulting from an i.v. bolus, the terminal half-life reflects the absorption half-life.

db/db mice [4] = assay: Chronic dosing study, weekly s.c. for four weeks (GTT, % HbA1c, body weight, food intake); type: in vivo; conditions: for GTT AUC: i.p. glucose tolerance test 3 days after the first dosing cycle; for fasting plasma insulin: prior to glucose challenge; for change in % HbA1c from days 0 to 27: weekly 1000 nmol/kg s.c. for four weeks; for weight gain on chronic treatment: weekly 1000 nmol/kg s.c.
Experimental: as §1, §2
Food Intake: For food intake studies, animals were group-housed 4 per cage, and food pellets were weighed every 1-2 days. Total cage food intake was calculated for each time increment, averaged per animal, and summed over the course of the study to yield a cumulative food intake per mouse. N=8 treatment groups were divided into 2 cages, allowing for an n=2 food intake standard error calculation.

db/db mice [5] = assay: Hypoglycemia safety check (16 h extended fast, glucose-stimulated insulin in GTT)
Experimental: Glucose tolerance test: Animals were fasted at the onset of the light cycle for 5 h with ad libitum access to water, then injected via intraperitoneal (i.p.) with 0.75 g/kg D-glucose. Blood glucose levels were measured from a tail snip with a Contour Blood Glucose Meter (Bayer, Leverkusen, Germany) at t=0 (before glucose injection), 10, 20, 30, 60, 90, and 120 min.
Extended fast blood glucose measurements: Animals were fasted for 16 h starting at 4:00 PM with ad libitum access to water, after which blood glucose levels were measured from the tail vein as described for ambient blood glucose measurements.
Blood parameters: 50 μL blood samples were collected from the tail veins following a 6 h fast using Microvette EDTA coated tubes (Sarstedt), which were placed on ice until centrifugation at 5000 rcf at 4° C. for 15 min. Plasma supernatants were stored at −80° C. until time of assay. Plasma insulin levels were quantified using the Mercodia Mouse Insulin ELISA, according to the manufacturers' instructions.

GLP-1R = biological target: T1, GLP-1R (Homo sapiens, UniProt P43220); assay: cAMP production assay (GLP-1R agonism, HEK293 cells with cAMP-inducible luciferase reporter); type: cell-based; conditions: fusion of GLP1 to ELP or ELP-FGF21
T1 construct: expressed in transfected cells; host or cells: HEK293
Experimental: This time, however, the intended cleavage substrate was a GA leader instead of the AA leader. […] Data were fit to a three-parameter dose-response curve to determine EC50s.
Cells were seeded at 1×10^5 cells/cm^2 into 96 well plates and adhered overnight. […] Luminescence of the supernatant samples were measured on a Victor X3 Plate Reader (Perkin Elmer) and normalized to zero drug treatment control wells. Data were fit to a three-parameter dose-response curve to determine EC50s using GraphPad Prism 8 software.

db/db mice [6] = assay: Short-term co-treatment pilot study, 48 h after single s.c. injection; type: in vivo; conditions: 48 h post-injection, 1000 nmol/kg s.c.
Experimental: as §1, §2
(§3) Ambient blood glucose measurements: Blood glucose levels were measured from a tail vein puncture with an AlphaTRAK 2 Blood Glucose Meter (Zoetis, Parsippany-Troy Hills, N.J.) every 24 h, 1-2 h following onset of the light cycle. […] Areas under the curve (AUCs) were calculated with GraphPad Prism 8 software using the trapezoidal rule and setting a Y=0 baseline. […]

db/db mice [7] = assay: GLP1-ELP control, single s.c. injection, glycemia and body weight for 10 days; type: in vivo; conditions: 1000 nmol/kg single s.c.
Experimental: as §1, §2, §3

[8] = 5 h fast, 3 days after the first dosing cycle, 1000 nmol/kg s.c.
[9] = 3 days after the first dosing cycle

T1 sequence (P43220 24-463, species assumed): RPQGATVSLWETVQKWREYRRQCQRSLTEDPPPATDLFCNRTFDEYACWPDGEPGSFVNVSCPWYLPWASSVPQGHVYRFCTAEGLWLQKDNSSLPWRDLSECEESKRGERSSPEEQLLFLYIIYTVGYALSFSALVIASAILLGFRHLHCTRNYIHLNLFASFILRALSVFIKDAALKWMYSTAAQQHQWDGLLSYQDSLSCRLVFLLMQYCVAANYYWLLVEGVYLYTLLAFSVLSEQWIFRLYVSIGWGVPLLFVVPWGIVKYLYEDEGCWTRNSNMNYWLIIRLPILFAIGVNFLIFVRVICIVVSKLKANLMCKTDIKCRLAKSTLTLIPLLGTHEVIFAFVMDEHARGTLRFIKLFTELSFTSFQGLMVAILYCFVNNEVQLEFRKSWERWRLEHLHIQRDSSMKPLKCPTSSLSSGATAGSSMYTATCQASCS

| Molecule | Cmax [3] [nM] | TMAX [3] [H] | AUC [3] [NM*D] | T1/2, ABS (absorption half-life) [3] [D] | R-squared, first-order model [3] | R-squared, zero-order model [3] | Regression model, first-order elimination (Log(y)) [3] | steady plasma drug levels [3] | fasting blood glucose levels (db/db mice [4]; [8]) [mg/dL] | food intake (db/db mice [4]; four-week treatment period) | GTT AUC (db/db mice [4]) | fasting plasma insulin (db/db mice [4]; [9]) | change in % HbA1c from days 0 to 27 (db/db mice [4]) | weight gain on chronic treatment (db/db mice [4]; four-week treatment period) [%] | further results |
| --- | --- | --- | --- | --- | --- | --- | --- | --- | --- | --- | --- | --- | --- | --- | --- |
| GLP1-ELP-FGF21: Fusion of GLP-1 analog, ELP (120 VPGXaaG repeats, 4:1 Val:Ala) and mutated murine FGF21; SEQ ID NO:15 (protein) AAHGEGTFTSDVSSYLEEQAAKEFIAWLVKGAGVGVPGVGVPGAGVPGVGVPGVGVPGVGVPGVGVPGAGVPGVGVPGVGVPGVGVPGVGVPGAGVPGVGVPGVGVPGVGVPGVGVPGAGVPGVGVPGVGVPGVGVPGVGVPGAGVPGVGVPGVGVPGVGVPGVGVPGAGVPGVGVPGVGVPGVGVPGVGVPGAGVPGVGVPGVGVPGVGVPGVGVPGAGVPGVGVPGVGVPGVGVPGVGVPGAGVPGVGVPGVGVPGVGVPGVGVPGAGVPGVGVPGVGVPGVGVPGVGVPGAGVPGVGVPGVGVPGVGVPGVGVPGAGVPGVGVPGVGVPGVGVPGVGVPGAGVPGVGVPGVGVPGVGVPGVGVPGAGVPGVGVPGVGVPGVGVPGVGVPGAGVPGVGVPGVGVPGVGVPGVGVPGAGVPGVGVPGVGVPGVGVPGVGVPGAGVPGVGVPGVGVPGVGVPGVGVPGAGVPGVGVPGVGVPGVGVPGVGVPGAGVPGVGVPGVGVPGVGVPGVGVPGAGVPGVGVPGVGVPGVGVPGVGVPGAGVPGVGVPGVGVPGVGVPGVGVPGAGVPGVGVPGVGVPGVGVPGVGVPGAGVPGVGVPGVGVPGVGVPGVGVPGAGVPGVGVPGVGVPGAYPIPDSSPLLQFGGQVRQRYLYTDDDQDTEAHLEIREDGTVVGAAHRSPESLLELKALKPGVIQILGVKASRFLCQQPDGALYGSPHFDPEACSFRERLLEDGYNVYQSEAHGLPLRLPQKDSPNQDATSWGPVRFLPMPGLLHEPQDQAGFLPPEPPDVGSSDPLSMVEGSQGRSPSYASG | 411 ± 51 | 10.5 ± 1.5 | 1961 ± 59 | 7.6 ± 1.1 | 0.85 | 0.81 | Log(y) = −0.0416x + 2.431 | ~100 nM | 125 ± 6.0 | consuming chow at an equivalent rate to GLP1-ELP | significantly decreased GTT AUC compared to GLP1-ELP or ELP-FGF21 | without a significant elevation in insulin | +0.3±0.2% | 14.1±1.6 | reversibility of phase change behavior ([1]; temperature ramped up to 37° C., then down to 20° C.): reversible; body weight % change on day 7 post-treatment (db/db mice [2]; 750 nmol/kg): −2.6±3.3%; blood glucose vs. time AUC (db/db mice [2]; 750 nmol/kg and 1000 nmol/kg, single s.c. injection, vs vehicle): Significant reductions; body weight % change on day 7 post-treatment (db/db mice [2]; 1000 nmol/kg): −2.7±3.7%; ambient blood glucose levels after treatment (db/db mice [2]; all doses, reduced from >300 mg/dL): < 150 mg/dL; persistence of blood glucose effects (db/db mice [2]; highest dose tested, 1000 nmol/kg): 8 days; persistence of blood glucose effects (db/db mice [2]; lowest dose, 250 nmol/kg): 4 days; duration of therapeutic drug levels and protection from hyperglycemia and weight gain (db/db mice [2]; single injection): > 7 days; reduction of body weights (maximum) (db/db mice [2]; two highest doses tested (750 and 1000 nmol/kg)): up to 7.2±2.3%; absorption half-life ([3]; linear regression fit to terminal portion of the data, 1000 nmol/kg s.c.): 182 ± 26.4 h; fasting blood glucose levels (db/db mice [4]; GTT 3 days following the final treatment): 92.7 ± 8.3 mg/dL; negative net weight gain values persisting through (db/db mice [4]; weekly dosing): 12 days; blood glucose levels after overnight 16 h fast (db/db mice [5]; 1000 nmol/kg s.c., fast begun 48 h post-treatment, threshold of hypoglycemia): 50 to 55 mg/dL; ad libitum-fed blood glucose levels (db/db mice [5]; 48 h post-treatment, 1000 nmol/kg s.c., vs vehicle): significant reductions; blood glucose levels during recovery (return to pre-injection baselines) (db/db mice [5]; t=60 to t=120 min post-challenge in GTT): -100 mg/dL |
| GLP1-ELP: Single agonist control: GLP-1 analog fused to ELP of 120 VPGXaaG repeats, 4:1 Val:Ala; SEQ ID NO:16 (protein) AAHGEGTFTSDVSSYLEEQAAKEFIAWLVKGAGVGVPGVGVPGAGVPGVGVPGVGVPGVGVPGVGVPGAGVPGVGVPGVGVPGVGVPGVGVPGAGVPGVGVPGVGVPGVGVPGVGVPGAGVPGVGVPGVGVPGVGVPGVGVPGAGVPGVGVPGVGVPGVGVPGVGVPGAGVPGVGVPGVGVPGVGVPGVGVPGAGVPGVGVPGVGVPGVGVPGVGVPGAGVPGVGVPGVGVPGVGVPGVGVPGAGVPGVGVPGVGVPGVGVPGVGVPGAGVPGVGVPGVGVPGVGVPGVGVPGAGVPGVGVPGVGVPGVGVPGVGVPGAGVPGVGVPGVGVPGVGVPGVGVPGAGVPGVGVPGVGVPGVGVPGVGVPGAGVPGVGVPGVGVPGVGVPGVGVPGAGVPGVGVPGVGVPGVGVPGVGVPGAGVPGVGVPGVGVPGVGVPGVGVPGAGVPGVGVPGVGVPGVGVPGVGVPGAGVPGVGVPGVGVPGVGVPGVGVPGAGVPGVGVPGVGVPGVGVPGVGVPGAGVPGVGVPGVGVPGVGVPGVGVPGAGVPGVGVPGVGVPGVGVPGVGVPGAGVPGVGVPGVGVPGVGVPGVGVPGAGVPGVGVPGVGVPGVGVPGVGVPGAGVPGVGVPGVGVPG | 369 ± 14 | 4.8 ± 0.7 | 2023 ± 67 | 20.8 ± 3.2 | 0.61 | 0.58 | Log(y) = −0.01628x + 2.263 | around 100 nM | 167 ± 11 | significant reduction in food intake | outperformed ELP-FGF21 in improving glucose tolerance | significant increase in fasting plasma insulin | +1.0±0.2% | 25.3±1.9 | increase in GLP-1R EC50 compared to native GLP-1 (GLP-1R): approximately ten-fold; also recorded: ten-fold increase; Tt (transition temperature) ([1]; PBS, injection-relevant concentration of 200 μM): 27.5 °C; body weight, % change from pre-injection weight (db/db mice [6]): −0.2±0.6%; plasma levels of component of 1:1 mixed depot ([3]; 1:1 mixture, 1000 nmol/kg each, steady for 7 days): around 100 nM; % HbA1c elevation relative to control (db/db mice [4]; four-week study): significantly reduced % HbA1c elevation relative to control; effect on body weight / weight gain compared to vehicle (db/db mice [4]; four-week treatment period): significantly inhibited weight gain; weight gain compared to control mice (db/db mice [7]; daily for 10 days): significantly inhibited weight gain; ambient blood glucose levels after treatment (db/db mice [7]; reduced from >300 mg/dL for the duration of the 10 day study): < 200 mg/dL |
